Patent US20240376151A1, “STAPLED PEPTIDES AND METHODS THEREOF” (FOG PHARMACEUTICALS, INC., priority 2022, published 2024)
Numbered stars: 1 amine (or outer) side, 2 acyl side, 3 side chain; on linkers, the order of the positions; unused ones are H or OH. Bridge positions count the residues as written; N and C are the ends. Ends that are not written are not given here. Phenylene(1,4-NHCOCH2)2 = O=C(C[*:1])Nc1ccc(NC(=O)C[*:2])cc1

Biological target: T1, CHIP (Homo sapiens, UniProt Q9UNE7)
T1 construct: N-term truncated CHIP (also known as STUB1, Uniprot ID: Q9UNE7, residues 23-303); made in house; host or cells: E. coli BL21 CodonPlus
T1 sequence (Q9UNE7 23-303): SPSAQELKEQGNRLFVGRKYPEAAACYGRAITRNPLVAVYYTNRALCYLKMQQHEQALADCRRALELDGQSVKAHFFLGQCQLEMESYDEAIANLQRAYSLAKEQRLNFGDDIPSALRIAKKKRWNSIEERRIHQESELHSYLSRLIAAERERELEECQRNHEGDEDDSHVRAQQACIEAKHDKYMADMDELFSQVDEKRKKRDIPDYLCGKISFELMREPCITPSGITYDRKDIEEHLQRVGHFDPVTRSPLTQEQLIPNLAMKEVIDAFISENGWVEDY
Experiment: Naive Library Presenter Screening (phage, NGS), CHIP
Format: binding
Conditions: for interaction data, BLANK: Blank = Media only
Description: To conduct phage library screening, previously described procedures were utilized in accordance with the present disclosure.
Next-generation sequencing was performed as described in accordance with the present disclosure.
Hit ID and Clustering is performed according to a described procedure in accordance with the present disclosure.

[1] = CHIP clusters (C83, C84), first column
[2] = CHIP clusters (C83, C84), second column
[3] = CHIP clusters (C83, C84), target concentration 10 nM
[4] = CHIP clusters (C83, C84), target concentration 30 nM
[5] = CHIP clusters (C83, C84), target concentration 100 nM
[6] = CHIP clusters (C83, C84), target concentration 300 nM
[7] = CHIP clusters (C83, C84), target concentration 1000 nM, first column
[8] = CHIP clusters (C83, C84), target concentration 1000 nM, second column
[9] = CHIP target concentration 10 nM
[10] = CHIP target concentration 30 nM
[11] = CHIP target concentration 100 nM
[12] = CHIP target concentration 300 nM
[13] = CHIP target concentration 1000 nM, first column
[14] = CHIP target concentration 1000 nM, second column

Sequence | interaction data, BLANK [1] | interaction data, BLANK [2] | interaction data at Target Concentration 10 [3] | interaction data at Target Concentration 30 [4] | interaction data at Target Concentration 100 [5] | interaction data at Target Concentration 300 [6] | interaction data at Target Concentration 1000 [7] | interaction data at Target Concentration 1000 [8] | interaction data at Target Concentration 10 [9] | interaction data at Target Concentration 30 [10] | interaction data at Target Concentration 100 [11] | interaction data at Target Concentration 300 [12] | interaction data at Target Concentration 1000 [13] | interaction data at Target Concentration 1000 [14]
DPAIIWCSQAASICTVD (linker 7-14 via Phenylene(1,4-NHCOCH2)2 (inferred)) | 0 | 0 | 0 | 0 | 19 | 15 | 23 | 24 | – | – | – | – | – | –
DPAINMCYRAAQICDVD (linker 7-14 via Phenylene(1,4-NHCOCH2)2 (inferred)) | 0 | 0 | 0 | 0 | 0 | 31 | 28 | 27 | – | – | – | – | – | –
DPALEECTQAAHICMVD (linker 7-14 via Phenylene(1,4-NHCOCH2)2 (inferred); not fully specified (C-terminus)) | 0 | 0 | 0 | 0 | 3 | 14 | 26 | 10 | – | – | – | – | – | –
DPALWNCQYAAVMCTQL (linker 7-14 via Phenylene(1,4-NHCOCH2)2 (inferred); not fully specified (C-terminus)) | 0 | 0 | 0 | 0 | 0 | 14 | 34 | 75 | – | – | – | – | – | –
DPAMWHCQYAAIMCNAN (DPAMWHCQYAAIMCNAN-NH2; linker 7-14 via Phenylene(1,4-NHCOCH2)2 (inferred)) | 0 | 0 | 0 | 0 | 0 | 15 | 7 | 29 | – | – | – | – | – | –
DPANHICHYAAHICDVD (DPANHICHYAAHICDVD-NH2; linker 7-14 via Phenylene(1,4-NHCOCH2)2 (inferred)) | 0 | 0 | 0 | 0 | 3 | 15 | 6 | 49 | – | – | – | – | – | –
DPAQDNCHYAAHICMVD (DPAQDNCHYAAHICMVD-NH2; linker 7-14 via Phenylene(1,4-NHCOCH2)2 (inferred)) | 0 | 0 | 0 | 0 | 0 | 47 | 25 | 57 | – | – | – | – | – | –
DPAQYNCYFAANICTVD (DPAQYNCYFAANICTVD-NH2; linker 7-14 via Phenylene(1,4-NHCOCH2)2 (inferred)) | 0 | 0 | 0 | 0 | 0 | 48 | 79 | 17 | – | – | – | – | – | –
DPASQWCQRAASICWID (DPASQWCQRAASICWID-NH2; linker 7-14 via Phenylene(1,4-NHCOCH2)2 (inferred)) | 0 | 0 | 0 | 0 | 0 | 15 | 18 | 8 | – | – | – | – | – | –
DPAVHNCSQAASICDVD (linker 7-14 via Phenylene(1,4-NHCOCH2)2 (inferred); not fully specified (C-terminus)) | 0 | 0 | 0 | 0 | 0 | 22 | 9 | 39 | – | – | – | – | – | –
DPAVRWCAAAAAICMVD (linker 7-14 via Phenylene(1,4-NHCOCH2)2 (inferred); not fully specified (C-terminus)) | 0 | 0 | 0 | 0 | 0 | 21 | 16 | 22 | – | – | – | – | – | –
DPAYDVCHFAAHICWID (linker 7-14 via Phenylene(1,4-NHCOCH2)2 (inferred)) | 0 | 0 | 0 | 0 | 22 | 19 | 20 | 62 | – | – | – | – | – | –
ICWAAWVSCS (linker 2-9 via Phenylene(1,4-NHCOCH2)2 (inferred)) | – | – | – | – | – | – | – | – | 0 | 0 | 0 | 25 | 42 | 17
ICYNARLECE (linker 2-9 via Phenylene(1,4-NHCOCH2)2 (inferred)) | – | – | – | – | – | – | – | – | 1 | 2 | 13 | 16 | 21 | 20
ICYNAWFECE (linker 2-9 via Phenylene(1,4-NHCOCH2)2 (inferred)) | – | – | – | – | – | – | – | – | 0 | 2 | 9 | 11 | 18 | 14
ICYNAWLECA (linker 2-9 via Phenylene(1,4-NHCOCH2)2 (inferred)) | – | – | – | – | – | – | – | – | 0 | 1 | 5 | 7 | 11 | 9
ICYNAWVECE (linker 2-9 via Phenylene(1,4-NHCOCH2)2 (inferred)) | – | – | – | – | – | – | – | – | 1 | 2 | 10 | 21 | 19 | 23
ICYSAWLECE (linker 2-9 via Phenylene(1,4-NHCOCH2)2 (inferred)) | – | – | – | – | – | – | – | – | 1 | 3 | 13 | 25 | 22 | 28
ICYTAWLECE (linker 2-9 via Phenylene(1,4-NHCOCH2)2 (inferred)) | – | – | – | – | – | – | – | – | 0 | 1 | 5 | 9 | 7 | 12
PCFEAWVMCEI (linker 2-9 via Phenylene(1,4-NHCOCH2)2 (inferred)) | – | – | – | – | – | – | – | – | 4 | 83 | 121 | 285 | 375 | 297
PCWDAWMLCTD (linker 2-9 via Phenylene(1,4-NHCOCH2)2 (inferred)) | – | – | – | – | – | – | – | – | 19 | 142 | 542 | 632 | 701 | 581
PCWEAWLWCSM (linker 2-9 via Phenylene(1,4-NHCOCH2)2 (inferred)) | – | – | – | – | – | – | – | – | 0 | 0 | 4 | 124 | 194 | 145
